The values that follow come from patent publication US20190300618A1 (Merck Sharp & Dohme, published 2019).

Residue numbers refer to the chain shown, from its start.

Common to all, as to assay: flow cytometry, CHO-K1; sub-column 2 of 2
For one assay, the target named is T1, Q15A.
T1 construct: also called hCD27 Q15A
T1 receptor: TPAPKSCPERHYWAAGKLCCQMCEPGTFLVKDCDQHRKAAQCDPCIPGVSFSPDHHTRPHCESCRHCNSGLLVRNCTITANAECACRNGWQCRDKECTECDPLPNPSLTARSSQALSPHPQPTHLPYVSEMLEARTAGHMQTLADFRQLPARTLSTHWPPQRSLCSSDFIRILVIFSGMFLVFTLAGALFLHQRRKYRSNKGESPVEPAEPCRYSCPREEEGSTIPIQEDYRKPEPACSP

Another assay concerns the target T2, D32A.
T2 construct: also called hCD27 D32A
T2 receptor: T1 receptor with A15Q, D32A

For a further assay, the target named is T3, I46A.
T3 construct: also called hCD27 I46A
T3 receptor: T1 receptor with A15Q, I46A

For the next assay, the target named is T4, R37A.
T4 construct: also called hCD27 R37A
T4 receptor: T1 receptor with A15Q, R37A

The target in the next assay is T5, K31A.
T5 construct: also called hCD27 K31A
T5 receptor: T1 receptor with A15Q, K31A

The target in a further assay is T6, Q41A.
T6 construct: also called hCD27 Q41A
T6 receptor: T1 receptor with A15Q, Q41A

The target of the next assay is T7, P8A.
T7 construct: also called hCD27 P8A
T7 receptor: T1 receptor with P8A, A15Q

For the next assay, the target named is T8, R10A.
T8 construct: also called hCD27 R10A
T8 receptor: T1 receptor with R10A, A15Q

In another assay the target is T9, H60A.
T9 construct: also called hCD27 H60A
T9 receptor: T1 receptor with A15Q, H60A

The target of another assay is T10, K17A.
T10 construct: also called hCD27 K17A
T10 receptor: T1 receptor with A15Q, K17A

Turning to 1A4 (mouse IgG1) (antibody), the % of WT hCD27 binding (geo mean FITC) worked out at 7.6% with Q15A; 8.7% in the assay with D32A; 82.7% with I46A; 87% in the assay with R37A; 138% with K31A; 76.1% with Q41A. Also, the % of WT hCD27 binding (geo mean FITC) with P8A worked out at 79.1%; with R10A, 113%; with H60A, 120%; with K17A, 6.8%.
With 9F4 (mouse IgG2a) (antibody), the % of WT hCD27 binding (geo mean FITC) with Q15A was 118%; with D32A, 66.3%; in the assay with I46A it was 82.7%; in the assay with R37A it was 6.2%; with K31A, 133%; with Q41A, 71.3%. The % of WT hCD27 binding (geo mean FITC) with P8A was determined as 62.2%; in the assay with R10A, 99%; in the assay with H60A it was 126%; in the assay with K17A, 106%.

B1: Antibody hCD27.131A (mouse parental 131A) (antibody, V domains shown)
VH: QIQLVQSGPELKKPGETVKISCKASGYTFTNYGMNWVKQAPGKGLKWMGWINTNTGEPTYAEEFKGRFAFSLETSATTAYLQINNLKNEDTATYFCAREGDAMDYWGQGTSVTVSS
VL: QIVLTQSPAIMSASPGEKVTMTCSASSSVSYMHWYQQKSGTSPKRWIYDTSKLASGVPARFSGSGSGTSYSLTISSMEAEDAATYYCQQWNSYPFTFGSGTKLEIK
notes: mouse IgG1; also called mouse hCD27.131A
Regarding B1, the “% of WT hCD27 binding (geo mean FITC)” value with Q15A amounted to 136%; with D32A it was 62.1%; with I46A, 75%; with R37A, 9.6%; with K31A, 134%; in the assay with Q41A it was 80.5%. For the same molecule, the “% of WT hCD27 binding (geo mean FITC)” value in the assay with P8A is 15.9%; with R10A, 108%; with H60A, 129%; with K17A, 126%.
